Here are results for two molecules from patent US20090191198A1 (EBERHARD KARLS UNIVERSITAT TUBINGEN, published 2009).

The labels stand for the following.
B1: NKp80-ED tetramers (biotinylated NKp80 ectodomain tetramerized with PE- or APC-labelled streptavidin) (receptor, not shown: large carriers; small tags and cut ends)
chain: QGVLLKCQKGSCSNATQYEDTGDLKVNNGTRRNISNKDLCASRSADQTVLCQSEWLKYQGKCYWFSNEMKSWSDSYVYCLERKSHLLIIHDQLEMAFIQKNLRQLNYVWIGLNFTSLKMTWTWVDGSPIDSKIFFIKGPAKENSCAAIKESKIFSETCSSVFKWICQY
modifications: biotinylated with BirA ligase at the BirA-tag ; Biotinylated by BirA ligase at the BirA-tag. Tetramerized on phycoerythrin- or allophycocyanin-labelled streptavidin (four copies per streptavidin, carrier not in the letters).
notes: Same polypeptide as m1, tetramerized on labelled streptavidin before use; also called sNKp80-ED tetramers

For assay [1], the target named is T1, soluble NKp80 ectodomain (NKp80-ED), biotinylated, used soluble or immobilized on streptavidin-coated … (human, UniProt Q9NZS2 64-231, biotinylated with BirA ligase at the BirA-tag ; Biotinylated by BirA ligase at the N-terminal BirA-tag (tag not in the letters). Used soluble or immobilized on streptavidin-coated microspheres. …).
T1 construct: Expressed in 293T cells from pSecTag2/HygroC; also called sNKp80-ED; imNKp80
T1 sequence: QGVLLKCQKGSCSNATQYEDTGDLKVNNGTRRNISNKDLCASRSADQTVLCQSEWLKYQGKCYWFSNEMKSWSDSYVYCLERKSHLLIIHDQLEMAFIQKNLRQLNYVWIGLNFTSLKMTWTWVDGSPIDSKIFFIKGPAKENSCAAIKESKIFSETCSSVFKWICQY
The assay can be described thus: flow cytometry, NKp80-ED tetramers on microsphere-immobilized NKp80-ED.

For assay [2], the target named is B1. Briefly: flow cytometry, tetramers on U937 cells.

For B1, the binding result in assay [1] is given as “no binding”.

B2: AICL (Activation-induced C-type Lectin), natural, on myeloid cells (U937, THP-1, monocytes, macrophages, granulocytes) or in their lysates (ligand)
chain: MMTKHKKCFIIVGVLITTNIITLIVKLTRDSQSLCPYDWIGFQNKCYYFSKEEGDWNSSKYNCSTQHADLTIIDNIEETNFLRRYKCSSDHWIGLKMAKNRTGQWVDGATFTKSFGMRGSEGCAYLSDDGAATARCYTERKWICRKRIH
As for B2, the binding result in assay [2] is given as “binds”.
